Results from the Immune Epitope Database (IEDB).

Experiments:
[1] = molecular target: HLA-A*24:02; assay: IEDB peptide-MHC binding, purified MHC/competitive/fluorescence; ≥ and ≤ were set here for values at or beyond the usual limits of such assays
[2] = molecular target: HLA-A*02:01; assay: as above
[3] = molecular target: HLA-A*02:01; assay: IEDB peptide-MHC binding, purified MHC/competitive/fluorescence; filed as Kd, often an IC50 or EC50 that approximates it; ≥ and ≤ were set here for values at or beyond the usual limits of such assays
[4] = molecular target: HLA-B*07:02; assay: IEDB peptide-MHC binding, purified MHC/direct/fluorescence; filed as Kd, often an IC50 or EC50 that approximates it; ≥ and ≤ were set here for values at or beyond the usual limits of such assays
[5] = molecular target: HLA-B*58:01; assay: as above; conditions: source organism: SARS-CoV1
[6] = molecular target: HLA-A*01:01; assay: as above
[7] = molecular target: HLA-B*53:01; assay: IEDB peptide-MHC binding, purified MHC/competitive/radioactivity; filed as Kd, often an IC50 or EC50 that approximates it; ≥ and ≤ were set here for values at or beyond the usual limits of such assays
[8] = molecular target: HLA-A*01:01; assay: as above
[9] = molecular target: HLA-B*44:02; assay: as above
[10] = molecular target: HLA-B*44:03; assay: as above
[11] = molecular target: HLA-A*30:01; assay: as above
[12] = molecular target: HLA-A*32:01; assay: as above
[13] = molecular target: HLA-B*40:01; assay: as above
[14] = molecular target: HLA-A*03:01; assay: as above
[15] = molecular target: HLA-A*31:01; assay: as above
[16] = molecular target: HLA-A*68:01; assay: as above
[17] = molecular target: HLA-A*33:01; assay: as above
[18] = molecular target: HLA-A*30:02; assay: as above; conditions: source organism: Mammarenavirus juninense
[19] = molecular target: HLA-A*26:01; assay: as above; conditions: source organism: Mammarenavirus juninense
[20] = molecular target: HLA-A*29:02; assay: as above; conditions: source organism: Mammarenavirus juninense
[21] = molecular target: HLA-A*03:01; assay: IEDB peptide-MHC binding, purified MHC/direct/fluorescence; filed as Kd, often an IC50 or EC50 that approximates it; ≥ and ≤ were set here for values at or beyond the usual limits of such assays; conditions: source organism: Brucella abortus
[22] = molecular target: HLA-A*11:01; assay: as above; conditions: source organism: Brucella abortus
[23] = molecular target: HLA-B*15:01; assay: as above; conditions: source organism: Brucella abortus
[24] = source organism: Zaire ebolavirus
[25] = source organism: Vaccinia virus Copenhagen
[26] = source organism: Dengue virus 1 Singapore/S275/1990
[27] = source organism: Dengue virus 3 Martinique/1243/1999
[28] = source organism: Sudan ebolavirus
[29] = source organism: Dengue virus 4 Philippines/H241/1956
[30] = source organism: Mycobacterium tuberculosis
[31] = source organism: Vaccinia virus WR
[32] = source organism: Dengue virus 2 Jamaica/1409/1983
[33] = source organism: Vaccinia virus
[34] = source organism: Dengue virus 1 Brazil/97-11/1997
[35] = source organism: Mammarenavirus machupoense
[36] = source organism: Mammarenavirus juninense
[37] = source organism: Lymphocytic choriomeningitis virus (strain Armstrong)

With LGVIHNSTL the IC50 [1, 24] was 50900 nM and the IC50 [2, 24] was 69100 nM.
LLNNSLGSV was tested, and the Kd [3, 25] was 3.6 nM.
LLWKTWYPC gave a Kd ([4]; source organism: Homo sapiens) of 14600 nM.
In the case of LSDHQDLKW, the Kd [5] is reported as 26.6 nM and the Kd ([6]; source organism: SARS-CoV1) is reported as 818 nM.
Sequence LTDFQSHQLW has a Kd [7, 26] of 1580 nM and a Kd [8, 26] of 3680 nM.
In the case of MEDKTPVTTW, the Kd [9, 27] is reported as 115 nM and the Kd [10, 27] is reported as 180 nM.
Sequence MEGLSLLQL has an IC50 [1, 28] of 22300 nM and an IC50 [2, 28] of at least 88900 nM.
MEVEIWTRE was tested, and the Kd [10, 29] was 1080 nM.
Work on MFLITENKIW yielded a Kd ([7]; source organism: Dengue virus 1 Nauru/West Pac/1974) of 8870 nM.
For MIRAQAGSL, the Kd [4, 30] was 33.5 nM.
Work on MSRRYSREK yielded a Kd [11, 31] of 1.31 nM.
Work on MTLFKSILF yielded a Kd [12, 31] of 11.3 nM.
MTLGMCCII showed a Kd [12, 32] of 2590 nM.
Work on MTTEDMLKVW yielded a Kd [7, 29] of 1150 nM.
In the case of MTVASRQPI, the Kd [12, 31] is reported as 2860 nM.
Work on NHALSELPET yielded a Kd [11, 32] of 1240 nM.
NIGNTKSNI showed an IC50 [1, 33] of at least 176000 nM and an IC50 [2, 33] of at least 662000 nM.
Sequence PTTTYTLEY has a Kd [6, 30] of 14.2 nM.
In the case of PYFGPAAEG, the IC50 [1, 24] is reported as 13000 nM.
QYSDRRWCFD gave a Kd [12, 34] of at least 53500 nM.
Sequence RAREQISNL has a Kd ([11]; source organism: Cowpox virus) of 2.73 nM.
For REEEEAGVLW, the Kd [9, 32] was 51.2 nM and the Kd [10, 32] was 36.1 nM.
Sequence RETACLGKAY has a Kd [10, 27] of 17.9 nM.
With RFRFRSVYG the Kd [11, 31] was 0.357 nM.
In the case of RQVEKVETW, the Kd [12, 27] is reported as 79.6 nM.
RTSSDPGTN gave an IC50 [1, 24] of at least 98100 nM.
For RTYSDPLAL, the Kd [12, 34] was 33.4 nM.
With SEFQIYKKSG the Kd [13, 32] was 407 nM and the Kd [10, 32] was 3730 nM.
SIQKNTIFK was tested, and the Kd [14, 35] was 10.4 nM, the Kd [11, 35] was 62.6 nM and the Kd [15, 35] was 1890 nM. The Kd [16, 35] was 162 nM and the Kd [17, 35] was at least 22900 nM.
With SIRRNLALK the Kd [11, 31] was 12.4 nM.
For SLFSLLLVI, the Kd [12, 31] was 27.5 nM.
Work on SVIGTFVAEF yielded a Kd [11, 36] of 2420 nM, a Kd [18] of 110 nM and a Kd [12, 36] of 195 nM. It also gave a Kd [8, 36] of 3580 nM, a Kd [19] of 3.37 nM and a Kd [20] of 169 nM.
Work on SVNSFTLLI yielded a Kd [12, 25] of 2.63 nM.
Work on TARSNNRLA yielded a Kd [11, 31] of 57.6 nM.
TDFQSHQLW gave a Kd [9, 26] of 37 nM.
In the case of TEATQLATL, the Kd [13, 27] is reported as 8.32 nM.
TLRAAMISL was tested, and the Kd [11, 31] was 0.714 nM and the Kd ([3]; source organism: Vaccinia virus WR 65-16) was 2310 nM.
In the case of TTYLGPLSCK, the Kd [14, 37] is reported as 4.47 nM, the Kd [11, 37] is reported as 432 nM and the Kd [15, 37] is reported as 540 nM. For the same sequence, the Kd [16, 37] was 4.63 nM and the Kd [17, 37] was 647 nM.
Sequence TVKDGRLGA has a Kd [11, 31] of 240 nM.
In the case of VAEGQTLDL, the Kd ([4]; source organism: Homo sapiens) is reported as at least 87200 nM.
Sequence VDNLTYVQL has an IC50 [1, 24] of at least 117000 nM.
Work on VMEITAEWLW yielded a Kd ([7]; source organism: Dengue virus 3 Singapore/8120/1995) of 1030 nM.
For VNPEIDTTI, the IC50 [1, 24] was 16100 nM and the IC50 [2, 24] was at least 358000 nM.
With VQGPGGSTY the Kd [21] was 14500 nM, the Kd [22] was 8940 nM and the Kd [23] was 190 nM.
With VQLESRFTP the IC50 [1, 24] was 59200 nM and the IC50 [2, 24] was at least 197000 nM.
For VTEIGRVPSH, the Kd [11, 27] was at least 22900 nM.
WFNYLFGGF showed an IC50 ([1]; source organism: Variola virus) of 484 nM and an IC50 ([2]; source organism: Variola virus) of at least 104000 nM.
With YPKTKLTDW the Kd [7, 29] was 1440 nM.
